Source: the supplement of paper PMC11780869

Test system: Bacillus subtilis
Assay: cleaved RNA product abundance (RNA/gDNA barcode ratio) relative to median wild-type variant (ratio to wild type); higher = more accumulation of the downstream cleavage product
Summary of the method: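 Cleaved product abundance is expressed as the RNA:gDNA barcode ratio per construct, scaled to the median construct carrying the unmutated site. The constructs were barcoded, mutagenized RNase Y cleavage-site windows in truncated aprE or tetM reporter mRNAs integrated into the B. subtilis chromosome. Cultures grew in LB at 37°C from OD600 0.0003 to 0.3 before cleaved RNA was gel-selected and barcode-sequenced.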

[1] = experiment (reporter, strain, medium): exp 4a: truncated aprE reporter, strain BJT201 with 2% xylose (RNase J1 expressed), cleavage site: cggR-gapA (positions -7 to +36 mutated)
[2] = experiment (reporter, strain, medium): exp 2b: truncated aprE reporter, strain BJT200, cleavage site: cggR-gapA (positions -7 to +36 mutated)
[3] = experiment (reporter, strain, medium): exp 8a: truncated aprE reporter, strain BJT201 with 2% xylose (RNase J1 expressed), cleavage site: glnRA (positions -5 to +31 mutated)

Sequence | cleaved RNA product abundance [1] | cleaved RNA product abundance [2] | further results
ACAGACGAAGGAGCCGCAAAGAAGTTATTAAGAGATGAATAATCCCTCAATATAATTATCTCTCACTTATTTAAA | 0.118 |  | 
ACAGACGAAGGAGCCGCAAAGAAGTTATTAAGGGATCAATAATCCCTGAATATAAATATCTCTCACTTATTTAAA | 0.61 | 0.512 | 
ACAGACGAAGGAGCCGCAAAGAAGTTATAAAGGGATGCATAATCCCTCAATATAAATATCTCTCACTTATTTAAA | 0.241 | 0.309 | 
ACAGACGAAGGAGCCGCAAAGTAGTTATTAAGGGATGAATAATCCCACAATATAAATATCTCTCACTTATTTAAA | 0.223 | 0.199 | 
CGACATGTCCCGCTTCTTTCATTAATCCGTTAGCAACTGTTATGCTATATAGATTTACCTTTTAAGAGGAGGAAT |  |  | cleaved RNA product abundance [3]: 1.29
CGACATGTCCCGCTTCTTTCATTAATCCGTTAGCAAATGTTTAGCTATATACATTTACCTTTTAAGAGGAGGAAT |  |  | cleaved RNA product abundance [3]: 0.503
ACAGACGAAGGAGCCGCAAAGAAGTTATAAAGGGATGAATAATCCATCAATATAAATATCTCTCACTTATTTAAA | 0.26 |  | 
CGACATGTCCCGCTTCTTTCATTAAACCGTTAGCAACTGTTTTGCTATATACATTTTCCTTTTAAGAGGAGGAAT |  |  | cleaved RNA product abundance [3]: 0.432
ACAGACGAAGGAGCCGCAAAGAAGTTATTAAGGGATGAATAATCACTCAATATAAATAGCTCTCACTTATTTAAA | 0.101 |  | 
CGACATGTCCCGCTTCTTTCATTAATCCGTTAGCAACTGTTTAGATATATACATTTACCTTTTAAGAGGAGGAAT |  |  | cleaved RNA product abundance [3]: 0.297
ACAGACGAAGGAGCCGCAAAGAAGTTATTAAGGGTTTAATAATCCCTCAATATAAATATCTCTCACTTATTTAAA | 0.667 | 0.63 | 
ACAGACGAAGGAGCCGCAAAGAAGTTATTAGGGGTTGAATAATCCCTCAATATAAATATCTCTCACTTATTTAAA | 0.254 |  | 
ACAGACGAAGGAGCCGCTAAGAAGTGATTAAGGGATGAATAATCCCTCAATATAAATATCTCTCACTTATTTAAA | 0.419 |  | 
ACAGACGAAGGAGCCGCAAAGAAGTTATTAAGGCATGAATAATCCCTCCATATAAATATCTCTCACTTATTTAAA |  | 0.0936 | 
ACAGACGAAGGAGCCGCAAAGAAGTTATTAAGCGATGAATAATCCCTCAATATAAATATTTCTCACTTATTTAAA | 0.171 | 0.0865 | 
ACAGACGAAGGAGCCGCACAGAAGTTATTAAGGGATTAATAATCACTCAATATAAATATCTCTCACTTATTTAAA | 0.293 |  | 
ACAGACGAAGGAGCCGCAAACAAGTTATTAACGGATGAATAATCCCTCAATATAAATATCTCTCACTTATTTAAA | 0.0915 | 0.111 | 
ACAGACGAAGGAGCCGCAAAGAAGTTACTAAGGTATGAATAATCCCTCAATATAAATATCTCTCACTTATTTAAA | 0.15 | 0.103 | cleaved RNA product abundance (experiment (reporter, strain, medium): exp 6: tetM reporter, strain 168, cleavage site: cggR-gapA (positions -7 to +36 mutated)): 0.0813
ACAGACGAAGGAGCCGCAAAGAAGTTATTAAGAGATGAAAAATACCTCAATATAAATATCTCTCACTTATTTAAA | 0.146 |  | 
ACAGACGAAGGAGCCGCACAGAAGTTATTAAGAGATGAATAATCCCTCAATATAAATATCTCTCACTTATTTAAA | 0.215 | 0.134 | 
ACAGACGAAGGAGCCGCAAAGAAGTTATTAAGGGATGAATAATCCCACAATATACATATCTCTCACTTATTTAAA | 0.249 |  | 
CGACATGTCCCGCTTCTTTCATTAATCCGTTAGAAACTGTTTTGCTATATACATATACCTTTTAAGAGGAGGAAT |  |  | cleaved RNA product abundance [3]: 0.244
ACAGACGAAGGAGCCGCAAAGAAGTTATTAAGGCATGAATAATCCCTCACTATAAATATCTCTCACTTATTTAAA | 0.136 | 0.083 | 

Sequence | cleaved RNA product abundance [1] | cleaved RNA product abundance [2] | further results
ACAGACGAAGGAGCCGCATAGAAGTTATTAAGGGATGAATAATCCTTCAATATAAATATCTCTCACTTATTTAAA | 0.54 | 0.516 | 
ACAGACGAAGGAGCCGCAAAGAAGTTATTAAGCGATGAATAATCCGTCAATATAAATATCTCTCACTTATTTAAA | 0.139 |  | 
ACAGACGAAGGAGCCGCAAAGAAGTTATTAATGGATGAATAATCCCTGAATATAAATATCTCTCACTTATTTAAA | 0.133 | 0.0961 | 
CGACATGTCCCGCTTCTTTCATTAATCCGATAACAACTGTTTTGCTATATACATTTACCTTTTAAGAGGAGGAAT |  |  | cleaved RNA product abundance [3]: 0.201
ACAGACGAAGGAGCCGCAAAGAAGTTATTAAGAGATAAAAAATCCCTCAATATAAATATCTCTCACTTATTTAAA | 0.139 |  | 
ACAGACGAAGGAGCCGCAAAGAAGTTATTAATGGATGAATAATCCCTTAATATAAATATCTCTCACTTATTTAAA | 0.625 | 0.806 | 
ACAGACGAAGGAGCCGCAAAGAAGTTGTTAAGGGATGAATAATCCCTAAATATAAATATCTCTCACTTATTTAAA | 0.376 | 0.274 | 
CGACATGTCCCGCTTCTTTCATTAATCCGATATCAACTGTTTTGCTATATACATTTACCTTTTAAGAGGAGGAAT |  |  | cleaved RNA product abundance [3]: 0.242
CGACATGTCCCGCTTCTTTCATTAATCCATCAGCAACTGTTTTGCTATATACATTTACCTTTTAAGAGGAGGAAT |  |  | cleaved RNA product abundance [3]: 0.41
ACAGACGAAGGAGCCGCAAAGAAGTTATAAAGTGATGAATAATCCCTCAATATAAATATCTCTCACTTATTTAAA | 0.117 | 0.0907 | 
CGACATGTCCCGCTTCTTTCATTAATTCGTTAGCAACTGTTTTGCTATATACATTTGCCTTTTAAGAGGAGGAAT |  |  | cleaved RNA product abundance [3]: 0.536
ACAGACGAAGGAGCCGCAAAGAAGTTCTTAATGGATGAATAATCCCTCAATATAAATATCTCTCACTTATTTAAA | 0.119 |  | 
ACAGACGAAGGAGCCGCACAGATGTTATTAAGGGATGAATAATCCCTCAATATAAATATCTCTCACTTATTTAAA | 1.11 |  | 
ACAGACGAAGGAGCCGCAAAGAAGTTATTAAGGGATGAACAATACCTCAATATAAATATCTCTCACTTATTTAAA | 0.229 |  | 
CGACATGTCCCGCTTCTTTCATTAATCCGTTAGCAACCGTTTTGCTATATACATTTACATTTTAAGAGGAGGAAT |  |  | cleaved RNA product abundance [3]: 0.523
ACAGACGAAGGAGCCGCAAAGATGTTATTAAGGGTTGAATAATCCCTCAATATAAATATCTCTCACTTATTTAAA |  | 0.251 | 
ACAGACGAAGGAGCCGCAAACAAGTTATTAAGGGATGAATAATCCCTCAACATAAATATCTCTCACTTATTTAAA | 0.25 |  | 
ACAGACGAAGGAGCCGCAAAGAATTTATTACGGGATGAATAATCCCTCAATATAAATATCTCTCACTTATTTAAA | 0.37 | 0.303 | 
ACAGACGAAGGAGCCGCAAAGAAGTCATTAAGGGATGAATAATCCCTCAATATAAATAACTCTCACTTATTTAAA | 0.249 |  | 
CGACATGTCCCGCTTCTTTCATTACTCCGTTAGCAACTGTTTTGCTATCTACATTTACCTTTTAAGAGGAGGAAT |  |  | cleaved RNA product abundance [3]: 0.0823
ACAGACGAAGGAGCCGCAAAGAAGTTATAAAAGGATGAATAATCCCTCAATATAAATATCTCTCACTTATTTAAA | 0.165 | 0.153 | 
ACAGACGAAGGAGCCGCATAGAAGTTATTAAAGGATGAATAATCCCTCAATATAAATATCTCTCACTTATTTAAA | 0.199 |  | 
CGACATGTCCCGCTTCTTTCATTAATCCGTTAGCAACTGTTTTGTTATAGACATTTACCTTTTAAGAGGAGGAAT |  |  | cleaved RNA product abundance [3]: 0.265
